Test results: article PMC8906792 (eNeuro, 2022)

Molecular target: the molecule itself
Experiment: native gel or EMSA; NativePAGE 3-12% Bis-Tris gel, 7.5 ug of recombinant protein per lane; oligomer profile from <480 to 1236 kDa, median size read against markers

Protein	binding result
recombinant human αA-crystallin T148D (phosphomimetic) (natural protein, UniProt P02489 1-173, looked up) MDVTIQHPWFKRTLGPFYPSRLFDQFFGEGLFEYDLLPFLSSTISPYYRQSLFRTVLDSGISEVRSDRDKFVIFLDVKHFSPEDLTVKVQDDFVEIHGKHNERQDDHGYISREFHRRYRLPSNVDQSALSCSLSADGMLTFCGPKIQDGLDATHAERAIPVSREEKPTSAPSS	binds
recombinant human αA-crystallin T148A (nonphosphorylatable) (natural protein, UniProt P02489 1-173, looked up) MDVTIQHPWFKRTLGPFYPSRLFDQFFGEGLFEYDLLPFLSSTISPYYRQSLFRTVLDSGISEVRSDRDKFVIFLDVKHFSPEDLTVKVQDDFVEIHGKHNERQDDHGYISREFHRRYRLPSNVDQSALSCSLSADGMLTFCGPKIQAGLDATHAERAIPVSREEKPTSAPSS	binds
